{"source": "paper PMC4098917", "about": "“Assembly of the Type Two Secretion System in Aeromonas hydrophila Involves Direct Interaction between the Periplasmic Domains of the Assembly Factor ExeB and the Secretin ExeD” (PLoS ONE, 2014)", "molecules": {"B1": {"name": "periplasmic domain of ExeD (bacterial two-hybrid fusion) (domain or fragment)", "chain": "TEYSASFKNADIEEFINTVGKNLSKTIIIEPSVRGKINVRSYDLLNEEQYYQFFLSVLDVYGFAVVPMDNGVLKVVRSKDAKTSAIPVVDETNPGIGDEMVTRVVPVRNVSVRELAPLLRQLNDNAGGGNVVHYDPSNVLLITGRAAVVNRLVEVVRRVDKAGDQEVDIIKLKYASAGEMVRLVTNLNKDGNSQGGNTSLLLAPKVVADERTNSVVVSGEPKARARIIQMVRQLDRDLQSQGNTRVFYLKYGKAKDMVEVLKGVSSSIEADKKGGGTATTAGGGASIGGGKLAISADETTNALVITAQPDVMAELEQVVAKLDIRRAQVL", "notes": "periplasmic domain of ExeD, A. hydrophila, amplified from pGAD424-P-ExeD; Stood in pTRG and in pBT; also called P-ExeD; full-length P-ExeD; source: bacterial two-hybrid fusion (E. coli BM2H)"}, "B2": {"name": "fluorescein-EX labeled N-His-tagged periplasmic domain of ExeB (domain or fragment)", "chain": "HLLNNRPIEKTVEVKEVVTPPFVRVEPRPMITRPLPPPLPEPVVRPRVTPNDSAPAANGSQGLAERIMNALNSTPLMEETAPQAQSESQAMPISALPLELKQRVPPLAYGSHVFSSNPAKRAVMLNGREFREGSEVAPGVTLIAIAQDYIILQVAGQNVSLKALQDWRG", "modifications": "fluorescein (Fluorescein-EX Protein Labeling kit), ~0.8 moles of dye per mole of protein", "notes": "periplasmic domain of ExeB, A. hydrophila, in pET30a; Same construct as m27, purified and labelled; also called F-labeled P-ExeB; fluorescein-EX labeled P-ExeB; source: E. coli BL21, purified (Ni-NTA, Resource S ion exchange)"}}, "key": {"[1]": {"target": "dimerization domain (40 aa) of the Gal4 transcriptional activator protein (pBT-LGF2)", "assay": "two-hybrid; bacterial two-hybrid (BacterioMatch, E. coli BM2H; bait pBT, target pTRG); minimum inhibitory concentration of carbenicillin (0-12.8 mg/mL), 0.1 mM IPTG, overnight at 30°C"}, "[2]": {"target": "T1, periplasmic domain of ExeB (bacterial two-hybrid fusion) (A. hydrophila, UniProt P45755 58-226)", "T1 construct": "periplasmic domain of ExeB, A. hydrophila, amplified from pGAD424-P-ExeB; Stood in pBT and in pTRG; also called P-ExeB; source: bacterial two-hybrid fusion (E. coli BM2H)", "T1 sequence": "B2 chain", "assay": "two-hybrid; bacterial two-hybrid (BacterioMatch, E. coli BM2H; bait pBT, target pTRG); β-galactosidase activity of permeabilized cells, 0.02 mM IPTG", "settings": "partners not purified"}, "[3]": {"target": "T2, N-His-tagged periplasmic domain of ExeD, purified (A. hydrophila, UniProt P31780 26-355)", "T2 construct": "periplasmic domain of ExeD, A. hydrophila, in NdeI/XhoI of pET30a; the printed primers carry no His codons and no stop codon, so the tag may be the vector's C-terminal one (my surmise); also called P-ExeD; N-His-tagged-P-ExeD; source: E. coli BL21, purified (Ni-NTA, Resource S ion exchange)", "T2 sequence": "B1 chain", "assay": "fluorescence polarisation; steady state rotational anisotropy; F-labeled P-ExeB 50 nM, titration of P-ExeD 0-4000 nM, RT buffer, 21°C; apparent Kd from a rectangular hyperbola", "settings": "both partners purified"}}, "data": [{"molecule": "domain (90aa) of the mutant form of the Gal11 protein (pTRG-Gal11P) (domain or fragment)", "values": [{"measurement": "MIC of carbenicillin", "setting": "[1]", "value": 12.8, "unit": "mg/mL"}]}, {"molecule": "B1", "values": [{"measurement": "fold β-galactosidase activity over cells with the empty vectors", "setting": "[2]", "value": "> 11", "unit": "fold"}]}, {"molecule": "B2", "values": [{"measurement": "Kd", "setting": "[3]", "value": "1190 ± 160", "unit": "nM"}]}]}
